In paper PMC10310011, “Accelerated absorption of regular insulin administered via a vascularizing permeable microchamber implanted subcutaneously in diabetic Rattus norvegicus” (PLOS ONE, 2023):

Conditions: rat, in vivo
Text: Male athymic nude R. norvegicus between 9–12 weeks of age and weighing 250–350 g were purchased from Envigo (Livermore, CA, USA). Because estrogen interferes with streptozotocin [44] (see next), only male animals were included. Athymic nude rats were chosen to abrogate a possible antibody response against the human insulin to be injected. Animals were housed for a seven-day acclimatization period before initiating any experimental procedures. To avoid endogenous insulin in subject rats from cross-reacting in the human insulin assays, animals were rendered diabetic by a single intraperitoneal injection, 60 mg/kg, of streptozotocin (Sigma-Aldrich, St. Louis, MO, USA). Blood glucose concentrations were monitored daily using a Freestyle Lite Glucose Monitoring System (Abbott Diabetes Care Inc., Alameda, CA, USA). Rats were considered diabetic when blood glucose concentrations greater than 200 mg/dl were recorded on three consecutive days. Rats verified as diabetic were maintained with exogenous long-acting insulin (Lantus, Sanofi-Aventis, Bridgewater, NJ, USA) throughout the study; maintenance insulin treatment also serves to forestall insulin resistance. Maintenance insulin therapy was suspended for 24 hours prior to each insulin kinetics study. Two days after the initial insulin-kinetics assay two empty, 1.5 cm^2 per side, single-chamber (having a nominal internal volume of 22.5 μl), implantable vascularizing microchambers, IVMs (Procyon Technologies LLC, Tucson, AZ, USA) (Fig 1A) were implanted subcutaneously on the dorsal aspect of each rat. The initial insulin kinetics assays were performed 7 days after STZ induction of diabetes. […] Plasma samples collected from each insulin kinetics assay were analyzed for human insulin concentration using a commercial human insulin ELISA kit (Alpco, Salem, NH, USA). […] The measured insulin concentrations were converted from IU/ml to μg/ml according to the manufacturer’s recommended conversion ratios of 1 IU of human insulin = 6nmol = 34.8 μg of insulin. […] The mean and standard deviation (SD) for each category were then calculated. […]

For insulin human, the “Plasma insulin curves after SC injection, diluted versus stock concentration” value was “did not vary significantly”, the “95% CI of Tmax” value (sc) was 13.18 to 32.27 min and the “Tmax (mean peak time of plasma insulin)” value (sc) was 22.7 min.
